Key:
Assay in all cases: BLI, biotinylated S1 variant on streptavidin sensor
[1] = target: T1, SARS-COV2 突变株 S1 Alpha B.1.1.7 (SARS-CoV-2 Alpha B.1.1.7, UniProt P0DTC2 16-685)
T1 construct: domain: S1; also called Alpha B.1.1.7的S1; Alpha突变体

[2] = target: T2, SARS-COV2 突变株 S1 Delta B.1.617.2 (SARS-CoV-2 Delta B.1.617.2, UniProt P0DTC2 16-685)
T2 construct: domain: S1; also called Delta B.1.617.2的S1; Delta突变体

[3] = target: T3, SARS-COV2 突变株 S1 Omicron BA.2 (SARS-CoV-2 Omicron BA.2, UniProt P0DTC2 16-685)
T3 construct: domain: S1; also called Omicron BA.2的S1; Omicron突变体

B1: 纳米抗体Nb-H6 (VHH)
VHH: QLVESGGGLVQAGDSLRLSCAASERALSSFHMGWFRQAPGKQRAFVAAIKWRDGTTYYADSVKGRFTISRDNAKNTVYLQMNSLEPEDTAVYYCYYRGRWGTYWGQGTQVTVSS
Kd [1]: 1080 nM
Kd [2]: 1120 nM
Kd [3]: 200 nM

From patent CN114773459A (UNIV SHENZHEN, dated 2022)
